In the supplement of paper PMC10567573:
± gives the standard deviation.

Assay: protein stability index of a GFP-peptide fusion (GPS, HEK-293T) (PSI 1-6); higher = more stable
Details: c terminus: a fixed tail appended
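Further: 24-mer peptide tiles fused after GFP, lentivirally expressed, FACS-sorted into six equal bins by GFP/DsRed ratio, decoded by Illumina sequencing, PSI is the read-weighted mean bin number.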

Sequence	protein stability index (treatment: DMSO)	protein stability index (treatment: MLN4924 1 uM, 8 h)
DEPCAISGKWTFQRDSKRWSRLEE [DLC1]	3.99 ± 0.14	3.91 ± 0.33
DFGLAKEYIDPETKKHIPYREHKS [CSNK1G1]	4.26 ± 0.34	4.34 ± 0.086
DFVMSLTFPFKILGDSGLGPWQLN [P2RY14]	3 ± 0.56	3.08 ± 0.74
DGEGAGPGEQGGGKLVLSSLPKRL [ESRRA]	4.94 ± 0.14	4.68 ± 0.15
DGIDPFPLLMNRQRVPKVLVENAK [EFHC1]	3.77 ± 0.24	3.97 ± 0.22
DGIPQVYYFGPCGKYNAMVLELLG [CSNK1G3]	2.31 ± 0.58	2.27 ± 0.43
DITPLMAAANGGHVKIVKLLLAHK [ANKRD17]	2.27 ± 0.2	2.33 ± 0.41
DIVDEDVKLMMSTLPKSLSLPTTA [MYBL2]	3.9 ± 0.27	3.7 ± 0.27
DLERQNQEYQVLLDVRARLECEIN [KRT33B]	3.39 ± 0.29	3.58 ± 0.22
DLIESDPDAWCDLSKFDLPEEPSA [MYBL2]	5.01 ± 0.35	5.02 ± 0.17
DLISKSFQGSQGRAYLFNSVVNVG [YPEL3]	2.16 ± 0.22	2.11 ± 0.19
DMKSLKQVLEMKNQQIHEQEKKIL [MTUS2]	4.23 ± 0.046	4.31 ± 0.33
DMVQKSVSKTLPSTWSDPSVNISL [CLINT1]	3.04 ± 0.19	3.2 ± 0.19
DMVSNIELPTRIHEEVYFEPSSSK [MIA2]	3.68 ± 0.2	3.88 ± 0.39
DNAPAVLHPRPDWEHSAPQRLPRS [PCDHGC5]	4.72 ± 0.17	4.81 ± 0.17
DNLSDLVMVRWNKSLEWSPWNCIL [IQUB]	2.56 ± 0.76	2.39 ± 0.34
DNSLINQIENLNIQVEDIRIRAIL [LOXL2]	2.59 ± 0.25	2.66 ± 0.17
DPLRSGTVLVSVTVFDANDNAPVF [PCDHGA10]	2.73 ± 0.42	2.82 ± 0.6

Sequence	protein stability index (treatment: DMSO)	protein stability index (treatment: MLN4924 1 uM, 8 h)
DQTSLLVVDKETDNMYRLAHFSPF [PDZK1]	2.61 ± 0.32	2.75 ± 0.26
DSDDPSVTLELSQLSMLPHLADLV [VDR]	3.41 ± 0.31	3.62 ± 0.33
DSDSCQKCDQPFFWNFKQMWDSKK [WDFY2]	3.64 ± 0.16	3.71 ± 0.081
DSRLMCSSVQKALFEEEDHVKKLQ [CCDC3]	4.71 ± 0.16	4.74 ± 0.25
DSYIPLHEDLLTRIGEATKPDGTV [NET1]	4.5 ± 0.43	4.73 ± 0.28
DTGEEEEGGDESDLSSESSIKKKF [EHMT1]	5.46 ± 0.32	5.3 ± 0.12
DTGETSMLKRPVLLHLHQTAHADE [STEAP1]	4.63 ± 0.078	4.88 ± 0.18
DTPCTNRGLPLLKTDFGSCLLQPP [DLC1]	3.41 ± 0.19	3.34 ± 0.34
DTYIVLAWISKIKGSPDVSASSDE [SMIM2]	2.42 ± 0.6	2.41 ± 0.27
DVVALLINHGAEVTCKDKKGYTPL [ANKRD44]	2.33 ± 0.55	2.27 ± 0.48
DYRKQLQYPNPLPVLSGAELEKAH [VPS39]	4.5 ± 0.15	4.41 ± 0.12
EADSQEQGHPQTGCECEDGPDGQE [GAGE1]	5.57 ± 0.28	5.57 ± 0.15
EAGAMTFHYIIEQGVCYLVLCEAA [SEC22B]	3.08 ± 0.23	3.01 ± 0.33
EALAKWAEGRTGFPWIDAIMTQLR [CRY1]	3 ± 0.085	2.73 ± 0.21
EALAVLEPYARLPPHKHVARPTEV [TRIB3]	2.72 ± 0.36	2.77 ± 0.2
ECRNPQELESIRQDRDALHMEGLI [FEM1B]	4.3 ± 0.16	4.31 ± 0.17
EDDDCDDDDDDDAQILPSRVQGGC [DRICH1]	5.47 ± 0.22	5.43 ± 0.11
EDDWPRDVSLPRGAFPPRGPRPVQ [CDK4]	4.57 ± 0.18	4.6 ± 0.24
